Results published in PMC10784507.

Biological target: holo-SDHA-SDHAF2 complex (preformed from purified proteins) (human) (UniProt P31040)
Experiment: pull-down; preformed holo-SDHA-SDHAF2 (2 µM, His6 on SDHA) incubated with SDHAF4 or its variants, with or without 5 mM fumarate, 30 min 25 °C, then held on Ni-NTA agarose; SDS-PAGE with Coomassie, western blot for the truncated variants

SDHAF4^E92N, sequence (Q5VUM1 21-108 E92N, stated change not applied): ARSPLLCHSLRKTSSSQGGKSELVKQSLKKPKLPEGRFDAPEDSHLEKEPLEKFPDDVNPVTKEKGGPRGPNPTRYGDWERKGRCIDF
holo-SDHA-SDHAF2 complex (preformed from purified proteins) (human), sequence (P31040 43-664, chain 1 of 2): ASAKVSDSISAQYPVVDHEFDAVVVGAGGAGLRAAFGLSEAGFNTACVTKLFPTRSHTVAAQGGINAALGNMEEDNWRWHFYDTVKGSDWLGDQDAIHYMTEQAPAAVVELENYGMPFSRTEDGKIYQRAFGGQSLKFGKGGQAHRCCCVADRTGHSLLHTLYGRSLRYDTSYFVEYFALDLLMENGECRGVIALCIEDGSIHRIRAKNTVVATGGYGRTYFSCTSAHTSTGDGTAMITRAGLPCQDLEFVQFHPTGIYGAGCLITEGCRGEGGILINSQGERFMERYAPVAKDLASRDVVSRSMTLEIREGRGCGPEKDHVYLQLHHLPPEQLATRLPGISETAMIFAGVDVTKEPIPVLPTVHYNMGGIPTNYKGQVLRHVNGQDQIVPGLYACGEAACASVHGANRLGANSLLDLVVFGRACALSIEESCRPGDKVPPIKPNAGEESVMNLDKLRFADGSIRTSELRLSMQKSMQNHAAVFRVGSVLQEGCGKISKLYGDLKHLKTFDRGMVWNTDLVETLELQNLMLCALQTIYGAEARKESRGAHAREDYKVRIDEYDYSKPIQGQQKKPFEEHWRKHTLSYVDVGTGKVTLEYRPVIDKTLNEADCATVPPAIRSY
holo-SDHA-SDHAF2 complex (preformed from purified proteins) (human), sequence (Q9NX18 37-166, chain 2 of 2, further chain): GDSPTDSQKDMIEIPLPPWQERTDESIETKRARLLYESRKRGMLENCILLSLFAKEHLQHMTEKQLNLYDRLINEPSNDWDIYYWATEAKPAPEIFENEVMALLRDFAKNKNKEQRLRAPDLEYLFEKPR

percent of SDHAF2 displaced from the SDHA-AF2 complex: 40 to 50%
Substance: SDHAF4^E92N (from UniProt Q5VUM1 21-108) (natural protein)
